Test results: patent US20120316071A1 (published 2012)
Each block holds one binder with its values, some of them ahead of it.

How the values were obtained:
[1] = biological target: T1, rHuman CD44/Fc Chimera, CF (R&D Systems Cat#3660-CD) (human, UniProt P16070 21-220); experiment: MSD multispot ECL, antigen spotted, Fab 0.6 nM; blank spot 226
T1 construct: Bought reagent

[2] = biological target: T2, rHuman IGF-1 sR, (IGF-1 sR), CF (R&D Systems Cat#391-GR) (human, UniProt P08069 31-932); experiment: as above
T2 construct: Bought soluble receptor; also called insulin-like growth factor-1 soluble receptor

[3] = biological target: T3, Recombinant Human DLL4 (R&D Systems Cat#1506-D4/CF) (human, UniProt Q9NR61 27-524); experiment: MSD multispot ECL, antigen spotted on plate, Fab 705 nM; blank spot 483
T3 construct: Bought from R&D Systems; also called rHuman DLL4; delta-like protein 4

[4] = biological target: T4, rHuman ErbB2/Fc Chimera, CF (R&D Systems Cat#1129-ER) (human, UniProt P04626 23-652); experiment: as above
T4 construct: Bought from R&D Systems; also called human epidermal growth factor 2 receptor (ErbB2); not shown: Fc of the bought chimera

[5] = biological target: T5, rHuman EGF R/Fc Chimera, CF (R&D Systems Cat#344-ER) (human, UniProt P00533 25-645); experiment: as above
T5 construct: Bought from R&D Systems; also called epidermal growth factor receptor (EGF R); not shown: Fc of the bought chimera

[6] = biological target: T6, rHuman Notch-1/Fc Chimera, CF (R&D Systems Cat#3647-TK) (human, UniProt P46531 19-526); experiment: as above
T6 construct: Bought from R&D Systems; not shown: Fc of the bought chimera

[7] = biological target: T7, rHuman CD44/Fc Chimera, CF (R&D Systems Cat#3660-CD) (human, UniProt P16070 21-220); experiment: as above
T7 construct: Bought from R&D Systems; not shown: Fc of the bought chimera

[8] = biological target: T8, rHuman IGF-1 sR, (IGF-1 sR), CF (R&D Systems Cat#391-GR) (human, UniProt P08069 31-932); experiment: as above
T8 construct: Bought from R&D Systems and called a soluble receptor; also called insulin-like growth factor-1 soluble receptor

[9] = biological target: T9, rHuman P-Cadherin/Fc Chimera, CF (R&D Systems Cat#861-PC) (human, UniProt P22223 108-654); experiment: as above
T9 construct: Bought from R&D Systems; not shown: Fc of the bought chimera

[10] = biological target: T10, rHuman Erythropoietin R/Fc Chimera, CF (R&D Systems Cat#963-ER) (human, UniProt P19235 25-250); experiment: as above
T10 construct: Bought from R&D Systems; also called EPO R/Fc; Epo R/Fc chimera; not shown: Fc of the bought chimera
T10 sequence (looked up): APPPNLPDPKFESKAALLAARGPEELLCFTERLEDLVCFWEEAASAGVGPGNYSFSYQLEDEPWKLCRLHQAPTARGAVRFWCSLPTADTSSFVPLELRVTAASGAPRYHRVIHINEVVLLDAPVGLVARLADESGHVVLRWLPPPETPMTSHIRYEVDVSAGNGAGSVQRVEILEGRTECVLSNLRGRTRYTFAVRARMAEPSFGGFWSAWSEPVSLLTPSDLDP

[11] = biological target: T3, Recombinant Human DLL4 (R&D Systems …); experiment: MSD multispot ECL, antigen spotted on plate, Fab 44.1 nM; blank spot 200
[12] = biological target: T4, rHuman ErbB2/Fc Chimera, CF (R&D …); experiment: as above
[13] = biological target: T5, rHuman EGF R/Fc Chimera, CF (R&D …); experiment: as above
[14] = biological target: T11, rHuman HGF R/c-MET/Fc Chimera, CF (R&D Systems Cat#358-MT/CF) (human, UniProt P08581 25-932); experiment: as above
T11 construct: Bought from R&D Systems; also called HGF R/Fc; hepatocyte growth factor receptor (HGF R/c-Met); not shown: Fc of the bought chimera

[15] = biological target: T6, rHuman Notch-1/Fc Chimera, CF (R&D …); experiment: as above
[16] = biological target: T7, rHuman CD44/Fc Chimera, CF (R&D Systems …); experiment: as above
[17] = biological target: T8, rHuman IGF-1 sR, (IGF-1 sR), CF (R&D …); experiment: as above
[18] = biological target: T9, rHuman P-Cadherin/Fc Chimera, CF (R&D …); experiment: as above
[19] = biological target: T10, rHuman Erythropoietin R/Fc Chimera, CF …; experiment: as above

T11 sequence (P08581 25-932, change not shown): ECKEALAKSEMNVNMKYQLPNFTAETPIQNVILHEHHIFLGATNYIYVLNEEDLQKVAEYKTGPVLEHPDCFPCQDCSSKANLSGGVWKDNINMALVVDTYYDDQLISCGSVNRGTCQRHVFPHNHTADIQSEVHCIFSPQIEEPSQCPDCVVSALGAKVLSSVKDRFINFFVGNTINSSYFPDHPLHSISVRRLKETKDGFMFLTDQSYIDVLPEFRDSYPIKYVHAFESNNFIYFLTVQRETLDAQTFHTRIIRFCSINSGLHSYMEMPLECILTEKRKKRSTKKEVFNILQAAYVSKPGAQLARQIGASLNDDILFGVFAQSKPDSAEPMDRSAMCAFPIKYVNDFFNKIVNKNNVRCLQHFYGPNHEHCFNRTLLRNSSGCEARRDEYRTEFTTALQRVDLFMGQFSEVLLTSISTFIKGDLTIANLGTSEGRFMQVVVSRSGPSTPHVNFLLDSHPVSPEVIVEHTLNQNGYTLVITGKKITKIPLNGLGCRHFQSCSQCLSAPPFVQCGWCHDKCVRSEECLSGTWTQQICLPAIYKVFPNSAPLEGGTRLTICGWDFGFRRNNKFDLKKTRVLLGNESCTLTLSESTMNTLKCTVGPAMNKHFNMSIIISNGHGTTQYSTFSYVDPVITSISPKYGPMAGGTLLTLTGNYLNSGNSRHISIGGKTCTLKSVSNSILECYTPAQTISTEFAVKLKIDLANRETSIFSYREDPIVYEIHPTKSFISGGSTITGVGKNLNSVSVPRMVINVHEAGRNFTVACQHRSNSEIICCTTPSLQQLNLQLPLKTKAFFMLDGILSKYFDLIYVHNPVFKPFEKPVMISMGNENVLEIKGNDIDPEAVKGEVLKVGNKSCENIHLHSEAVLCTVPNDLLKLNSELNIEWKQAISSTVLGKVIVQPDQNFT

ECL signal [1]: 238 ECL signal
ECL signal [2]: 313 ECL signal
B1: Fab VH1-46_IGHD6-6*01_IGHJ1*01 & L6_IGKJ1*01 (Fab, V domains shown)
VH: QVQLVQSGAEVKKPGASVKVSCKASGYTFTSYYMHWVRQAPGQGLEWMGIINPSGGSTSYAQKFQGRVTMTRDTSTSTVYMELSSLRSEDTAVYYCAREEYSSSSAEYFQHWGQGTLVTVSS
VL: not shown
notes: Only variable domains are tied to the molecule; Tested as a Fab made in E. coli: heavy chain from Plasmid A (CH1 constant region, His6 and Flag tags), kappa light chain from Plasmid C (kappa CL); also called parent Hit Fab against DLL4; VH1-46_IGHD6-6*01_IGHJ1*01 & L6_IGKJ1*01 (parental)

ECL signal [3]: 981
ECL signal [4]: 671
ECL signal [5]: 692
ECL signal [6]: 958
ECL signal [7]: 693
ECL signal [8]: 630
ECL signal [9]: 827
ECL signal [10]: 4890
ECL signal [11]: 388
ECL signal [12]: 347
ECL signal [13]: 428
ECL signal [14]: 336
ECL signal [15]: 331
ECL signal [16]: 302
ECL signal [17]: 309
ECL signal [18]: 343
ECL signal [19]: 2390
B2: Fab VH1-46_IGHD3-10*01_IGHJ4*01 & B3_IGKJ1*01 (Fab, V domains shown)
VH: QVQLVQSGAEVKKPGASVKVSCKASGYTFTSYYMHWVRQAPGQGLEWMGIINPSGGSTSYAQKFQGRVTMTRDTSTSTVYMELSSLRSEDTAVYYCAREYYYGSGSYYNDYFDYWGQGTLVTVSS
VL: not shown
notes: Tested as a Fab made in E. coli; VH was cloned into Plasmid A (CH1 constant region, His6 and Flag tags); The kappa VL was cloned into Plasmid C (kappa CL)
